From paper PMC5741687, “A Novel Role for CSRP1 in a Lebanese Family with Congenital Cardiac Defects” (Frontiers in Genetics, 2017)

Columns and labels:
[1] = target: HA-tagged serum response factor (SRF) (UniProt P11831)
[2] = target: HA-tagged GATA4 (UniProt P43694)
[3] = target: HA-tagged GATA4 (UniProt P43694); experiment: co-IP; nuclear extracts (200 ug protein) of HEK293 cells transiently overexpressing both proteins; anti-HA on Dynabeads Protein G, 2 h at RT, washed three times with PBS; blot with anti-Flag, then stripped and probed with anti-HA
[4] = target: HA-tagged GATA6 (UniProt Q92908); experiment: as above
[5] = target: HA-tagged TBX5 (UniProt Q99593); experiment: as above
[6] = target: HA-tagged serum response factor (SRF) (UniProt P11831); experiment: as above
[7] = target: T1, HA-tagged serum response factor (SRF) (UniProt P11831 1-508); experiment: cell-based or functional assay
T1 sequence (looked up): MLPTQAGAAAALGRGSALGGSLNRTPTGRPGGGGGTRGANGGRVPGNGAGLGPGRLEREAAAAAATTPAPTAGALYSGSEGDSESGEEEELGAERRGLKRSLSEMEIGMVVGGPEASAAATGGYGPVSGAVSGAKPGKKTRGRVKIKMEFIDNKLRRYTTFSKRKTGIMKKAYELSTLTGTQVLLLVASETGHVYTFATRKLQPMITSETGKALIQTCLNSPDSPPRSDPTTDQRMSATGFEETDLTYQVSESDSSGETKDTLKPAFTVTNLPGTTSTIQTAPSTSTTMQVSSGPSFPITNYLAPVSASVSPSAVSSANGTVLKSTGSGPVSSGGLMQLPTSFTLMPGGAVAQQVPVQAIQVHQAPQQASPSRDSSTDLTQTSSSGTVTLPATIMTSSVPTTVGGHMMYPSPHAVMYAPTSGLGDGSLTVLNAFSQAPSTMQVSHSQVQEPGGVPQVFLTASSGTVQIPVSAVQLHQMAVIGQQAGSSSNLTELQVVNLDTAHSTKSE

[8] = target: HA-tagged GATA4 (UniProt P43694 1-442); experiment: cell-based or functional assay
[9] = target: T2, HA-tagged TBX5 (UniProt Q99593 1-518); experiment: cell-based or functional assay
T2 sequence (looked up): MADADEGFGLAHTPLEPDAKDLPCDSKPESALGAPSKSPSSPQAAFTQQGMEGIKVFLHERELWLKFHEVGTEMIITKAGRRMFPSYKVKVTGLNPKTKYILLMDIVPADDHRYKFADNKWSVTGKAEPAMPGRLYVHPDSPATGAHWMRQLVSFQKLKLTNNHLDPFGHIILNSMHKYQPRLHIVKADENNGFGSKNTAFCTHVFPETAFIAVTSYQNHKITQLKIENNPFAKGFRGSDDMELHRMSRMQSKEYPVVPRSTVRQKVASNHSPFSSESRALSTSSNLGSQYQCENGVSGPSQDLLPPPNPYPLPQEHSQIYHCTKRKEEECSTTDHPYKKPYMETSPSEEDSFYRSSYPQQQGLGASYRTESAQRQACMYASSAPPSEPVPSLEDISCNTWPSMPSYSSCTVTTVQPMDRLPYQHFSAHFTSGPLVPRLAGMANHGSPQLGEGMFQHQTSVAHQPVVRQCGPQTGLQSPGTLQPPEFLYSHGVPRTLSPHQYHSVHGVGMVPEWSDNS

Sequence of HA-tagged GATA4 (UniProt P43694) (P43694 whole entry): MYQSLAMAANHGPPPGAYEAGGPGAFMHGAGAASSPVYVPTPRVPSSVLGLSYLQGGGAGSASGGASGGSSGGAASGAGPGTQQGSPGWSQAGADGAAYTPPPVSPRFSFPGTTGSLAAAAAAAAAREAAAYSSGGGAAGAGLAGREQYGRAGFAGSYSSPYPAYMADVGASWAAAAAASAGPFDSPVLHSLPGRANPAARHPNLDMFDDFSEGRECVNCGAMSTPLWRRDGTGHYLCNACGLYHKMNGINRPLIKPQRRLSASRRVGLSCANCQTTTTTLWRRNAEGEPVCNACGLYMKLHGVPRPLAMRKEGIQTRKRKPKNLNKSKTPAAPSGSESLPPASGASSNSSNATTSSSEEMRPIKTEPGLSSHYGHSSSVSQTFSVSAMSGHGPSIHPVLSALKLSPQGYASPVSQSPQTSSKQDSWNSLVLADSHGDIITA
Sequence of HA-tagged GATA4 (UniProt P43694 1-442) (P43694 whole entry): as above
Sequence of HA-tagged GATA6 (Q92908 whole entry): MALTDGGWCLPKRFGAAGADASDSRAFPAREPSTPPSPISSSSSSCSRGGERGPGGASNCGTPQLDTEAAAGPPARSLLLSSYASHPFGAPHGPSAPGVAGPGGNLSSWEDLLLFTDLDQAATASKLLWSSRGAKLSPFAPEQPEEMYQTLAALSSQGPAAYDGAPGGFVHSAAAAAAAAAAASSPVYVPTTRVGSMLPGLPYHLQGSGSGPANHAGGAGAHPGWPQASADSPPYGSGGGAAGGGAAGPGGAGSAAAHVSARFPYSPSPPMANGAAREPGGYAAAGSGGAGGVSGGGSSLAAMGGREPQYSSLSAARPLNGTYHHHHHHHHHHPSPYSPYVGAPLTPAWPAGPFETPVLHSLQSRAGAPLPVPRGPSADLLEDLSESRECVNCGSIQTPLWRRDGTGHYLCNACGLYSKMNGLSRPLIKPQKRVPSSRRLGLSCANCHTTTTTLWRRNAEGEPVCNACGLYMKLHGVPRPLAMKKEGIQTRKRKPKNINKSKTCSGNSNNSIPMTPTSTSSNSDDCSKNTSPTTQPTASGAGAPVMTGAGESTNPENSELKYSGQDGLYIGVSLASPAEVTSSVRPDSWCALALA

Molecule | percent inhibition of the synergy with SRF over the NPPA-luciferase promoter, co-transfection in HEK293 cells [1] [%] | synergy on the NPPA, VEGF and NOS3 luciferase promoters, co-transfection assays, fold activation (promoter of the number not told); synergy completely lost [2] [fold] | percent inhibition of the co-precipitation against wild-type CSRP1 [3] [%] | percent increase of the co-precipitation against wild-type CSRP1 [4] [%] | percent decrease of the co-precipitation against wild-type CSRP1 [5] [%] | percent inhibition of the co-precipitation against wild-type CSRP1 [6] [%] | synergistic activation of the NOS3-luciferase promoter, co-transfection in HEK293 cells, fold activation [7] [fold] | synergistic activation of the NPPA-luciferase promoter, co-transfection in HEK293 cells, fold activation [7] [fold] | synergistic activation of the VEGF-luciferase promoter, co-transfection in HEK293 cells, fold activation [7] [fold] | synergy on the NPPA, VEGF and NOS3 luciferase promoters, co-transfection assays, fold activation (promoter of the number not told) [8] [fold] | synergistic activation of the NPPA, VEGF and NOS3 luciferase promoters, co-transfection in HEK293 (CSRP1 400 and 600 ng, TBX5 200 and 400 ng); highest value on the NOS3 promoter [9] [fold]
Flag-tagged p.E154Vfs*99 CSRP1 mutant (from UniProt P21291 1-153) (natural protein) | 50 | 5 | < 85 | 15 | < 55.3 | 82 |  |  |  |  | 
Flag-tagged wild type human CSRP1 (natural protein, UniProt P21291 1-193, looked up) MPNWGGGKKCGVCQKTVYFAEEVQCEGNSFHKSCFLCMVCKKNLDSTTVAVHGEEIYCKSCYGKKYGPKGYGYGQGAGTLSTDKGESLGIKHEEAPGHRPTTNPNASKFAQKIGGSERCPRCSQAVYAAEKVIGAGKSWHKACFRCAKCGKGLESTTLADKDGEIYCKGCYAKNFGPKGFGFGQGAGALVHSE |  |  |  |  |  |  | 14 | 100 | 22.3 | 22 | 40
